Experimental data: patent US20040005550A1, “Methods and compositions useful for targeting activated vitronectin receptor alphavbeta3” (The Scripps Research Institute, priority 1998, published 2004)

How the values were obtained:
[1] = molecular target: T1, purified αvβ3 receptors from human placenta (human), P06756; assay: ELISA on purified integrin; 2 mM RGDS against WOW-1 Fab
T1 chain 1: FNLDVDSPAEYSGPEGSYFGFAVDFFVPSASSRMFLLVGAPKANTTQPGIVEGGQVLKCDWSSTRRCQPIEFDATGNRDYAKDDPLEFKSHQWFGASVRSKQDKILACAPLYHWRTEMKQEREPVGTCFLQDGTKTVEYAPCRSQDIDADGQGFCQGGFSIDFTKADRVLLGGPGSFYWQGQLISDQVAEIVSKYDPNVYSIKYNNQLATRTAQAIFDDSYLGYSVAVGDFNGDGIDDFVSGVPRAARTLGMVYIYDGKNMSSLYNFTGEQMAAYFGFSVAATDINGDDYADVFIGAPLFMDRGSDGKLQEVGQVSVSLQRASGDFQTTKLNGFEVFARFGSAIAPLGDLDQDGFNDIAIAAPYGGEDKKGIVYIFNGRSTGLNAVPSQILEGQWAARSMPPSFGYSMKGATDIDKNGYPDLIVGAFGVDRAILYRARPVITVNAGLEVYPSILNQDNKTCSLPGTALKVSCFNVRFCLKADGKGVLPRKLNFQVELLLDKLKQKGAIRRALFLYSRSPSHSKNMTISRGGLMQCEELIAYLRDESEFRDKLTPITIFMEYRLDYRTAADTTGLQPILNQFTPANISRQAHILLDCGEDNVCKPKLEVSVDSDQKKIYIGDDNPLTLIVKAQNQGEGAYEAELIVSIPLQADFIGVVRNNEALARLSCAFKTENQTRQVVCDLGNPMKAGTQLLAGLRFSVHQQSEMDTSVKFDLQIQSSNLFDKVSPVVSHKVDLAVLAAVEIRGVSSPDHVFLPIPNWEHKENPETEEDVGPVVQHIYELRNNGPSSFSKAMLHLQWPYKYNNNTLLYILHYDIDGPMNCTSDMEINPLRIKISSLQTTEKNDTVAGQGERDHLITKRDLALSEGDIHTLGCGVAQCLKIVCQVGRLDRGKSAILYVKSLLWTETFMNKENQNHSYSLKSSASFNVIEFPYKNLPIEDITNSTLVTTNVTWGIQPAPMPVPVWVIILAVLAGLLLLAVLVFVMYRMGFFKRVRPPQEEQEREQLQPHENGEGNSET
T1 chain 2: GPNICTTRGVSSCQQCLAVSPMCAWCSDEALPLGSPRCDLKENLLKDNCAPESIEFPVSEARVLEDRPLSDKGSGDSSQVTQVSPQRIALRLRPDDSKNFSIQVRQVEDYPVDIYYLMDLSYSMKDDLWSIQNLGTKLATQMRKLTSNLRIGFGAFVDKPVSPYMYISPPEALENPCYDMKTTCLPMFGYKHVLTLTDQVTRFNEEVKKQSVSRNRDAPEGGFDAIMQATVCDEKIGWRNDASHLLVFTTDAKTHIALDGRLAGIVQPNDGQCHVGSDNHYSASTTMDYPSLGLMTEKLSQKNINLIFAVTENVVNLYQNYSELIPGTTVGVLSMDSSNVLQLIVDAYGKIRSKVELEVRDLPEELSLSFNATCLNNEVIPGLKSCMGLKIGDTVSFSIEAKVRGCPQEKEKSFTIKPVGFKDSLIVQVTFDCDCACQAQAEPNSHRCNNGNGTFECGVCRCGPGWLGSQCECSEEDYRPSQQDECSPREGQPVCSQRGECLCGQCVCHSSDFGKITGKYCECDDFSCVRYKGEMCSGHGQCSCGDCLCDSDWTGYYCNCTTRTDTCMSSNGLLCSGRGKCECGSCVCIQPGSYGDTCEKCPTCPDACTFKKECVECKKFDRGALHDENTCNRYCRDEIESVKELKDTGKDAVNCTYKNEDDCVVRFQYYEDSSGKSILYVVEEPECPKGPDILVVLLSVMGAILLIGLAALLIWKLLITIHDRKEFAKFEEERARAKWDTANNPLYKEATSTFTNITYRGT

[2] = molecular target: T2, human αvβ3 integrin on cells (human), P06756; assay: flow cytometry, AP5-treated αvβ3-CHO cells; 2 mM RGDS against aPB
T2 chain 1: T1 chain 1
T2 chain 2: T1 chain 2

[3] = molecular target: T2, human αvβ3 integrin on cells (human), …; assay: flow cytometry, AP5-treated αvβ3-CHO cells; 2 mM RGDS against WOW-1 Fab

Binder: RGDS (modifications not checked)
- percent inhibition of WOW-1 Fab binding [1]: > 95%
- percent inhibition of aPB binding [2]: > 85%
- percent inhibition of WOW-1 Fab binding [3]: > 85%
